These results are taken from the supplement of paper PMC10567573.

± gives the standard deviation.

The data set in a line: protein stability index of a GFP-peptide fusion (GPS, HEK-293T) (PSI 1-6); higher = more stable. Particulars: c terminus: a fixed tail appended.
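Further: 24-mer peptide tiles fused after GFP, lentivirally expressed, FACS-sorted into six equal bins by GFP/DsRed ratio, decoded by Illumina sequencing, PSI is the read-weighted mean bin number.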

As to MAFLDKRLQVKEHQHEEIQNVRNH [ATL3], the protein stability index turned out to be 3.84 ± 0.069 (treatment: DMSO) and 3.98 ± 0.23 (treatment: MLN4924 1 uM, 8 h).

As to SSISSSARRTTRSEPIRRAGKSGT [MAP2], the protein stability index runs as follows: (treatment: DMSO) 4.89 ± 0.26; (treatment: MLN4924 1 uM, 8 h) 5.09 ± 0.16.

Take DPQSGELPSERWNPTQNVRTILLS [CDC34]: the protein stability index turned out to be 3.31 ± 0.35 (treatment: DMSO) and 3.62 ± 0.43 (treatment: MLN4924 1 uM, 8 h).

Turning to HLTRGRKMAHVIAACLYLVCRTEG [BRF1], the protein stability index is, setting by setting: (treatment: DMSO) 2.53 ± 0.99; (treatment: MLN4924 1 uM, 8 h) 2.6 ± 0.48.

With PPHICWDETHFGKMGSYYINRTFF [POMT2], the protein stability index worked out at 2.1 ± 0.44 (treatment: DMSO) and 2.23 ± 0.4 (treatment: MLN4924 1 uM, 8 h).

In the case of SFIIYLKNIVIADFVMSLTFPFKI [P2RY14], the protein stability index is, setting by setting: (treatment: DMSO) 3.16 ± 0.29; (treatment: MLN4924 1 uM, 8 h) 3.22 ± 0.4.

Regarding VLADLHSAEQLKAQAIDFINRCSV [SPOPL], the protein stability index reads like this: (treatment: DMSO) 2.15 ± 0.14; (treatment: MLN4924 1 uM, 8 h) 2.29 ± 0.39.

YGALSSNLQPPASLQTGNHSNGPT [NOL4L] showed a protein stability index (treatment: DMSO) of 4.39 ± 0.22 and a protein stability index (treatment: MLN4924 1 uM, 8 h) of 4.44 ± 0.18.

For the sequence YAELGQCSVFPATDAPEQFISQVT [PLK2], the protein stability index was found to be 2.67 ± 0.16 (treatment: DMSO) and 3.04 ± 0.41 (treatment: MLN4924 1 uM, 8 h).

Turning to SVVCRELGFGSAKEAVTGSRLGQG [LOXL2], the protein stability index was determined as 3.69 ± 0.41 (treatment: DMSO) and 4.12 ± 0.44 (treatment: MLN4924 1 uM, 8 h).

NSDMQILTASGDGTCALWDVESGQ [GNB5] showed a protein stability index (treatment: DMSO) of 4.81 ± 0.085 and a protein stability index (treatment: MLN4924 1 uM, 8 h) of 4.61 ± 0.36.

Take FQEPDSPLPPARSPTEPGPERRRS [WEE1]: the protein stability index by setting is: (treatment: DMSO) 5.32 ± 0.35; (treatment: MLN4924 1 uM, 8 h) 5.31 ± 0.06.

As for LEDFFVMSDYRGFGIGSEILKNLS [SAT1], the protein stability index amounted to 2.38 ± 0.14 (treatment: DMSO) and 2.28 ± 0.44 (treatment: MLN4924 1 uM, 8 h).

Take EFIMPDSAVVGDVLVLTKPLGTQV [SEPHS2]: the protein stability index was 2.3 ± 0.31 (treatment: DMSO) and 2.54 ± 0.32 (treatment: MLN4924 1 uM, 8 h).

QGEMDRKCKQVKEKCKEEFVEEIK [ZMYND11] registered a protein stability index (treatment: DMSO) of 4.91 ± 0.32 and a protein stability index (treatment: MLN4924 1 uM, 8 h) of 5.43 ± 0.24.

With HQQNKIKDLQKEQKTLQVKCQHYK [CEP70], the protein stability index (treatment: DMSO) is 4.11 ± 0.28 and the protein stability index (treatment: MLN4924 1 uM, 8 h) turned out to be 4.6 ± 0.21.

In the case of FVSAGAAAGVAAAFGAPIGGTLFS [CLCN6], the protein stability index (treatment: DMSO) was determined as 2.8 ± 0.48 and the protein stability index (treatment: MLN4924 1 uM, 8 h) worked out at 2.46 ± 0.21.

Consider MERSPDVSPGPSRSFKEELLCAVC [TRIM35], for which the protein stability index reads like this: (treatment: DMSO) 3.47 ± 0.18; (treatment: MLN4924 1 uM, 8 h) 3.6 ± 0.25.

As for IVSTQITRPSGNNGNRRRRKLRKT [PHTF1], the protein stability index came to 4.35 ± 0.35 (treatment: DMSO) and 4.46 ± 0.23 (treatment: MLN4924 1 uM, 8 h).

With SSESSDAGLCMDSPSPMDPHMAEQ [CDC25B], the protein stability index by setting is: (treatment: DMSO) 5.675 ± 0.013; (treatment: MLN4924 1 uM, 8 h) 5.21 ± 0.2.

ENNMLQPETHIFTAPEEVPKVSDQ [DMRTC1]: the protein stability index runs as follows: (treatment: DMSO) 5.57 ± 0.18; (treatment: MLN4924 1 uM, 8 h) 5.56 ± 0.21.

Consider AGGIRESKESSKEKKLTVRQDLED [C22orf31], for which the protein stability index was 5.56 ± 0.12 (treatment: DMSO) and 5.48 ± 0.3 (treatment: MLN4924 1 uM, 8 h).

As to YWKLQIFFTNVIQALGEHLKLRQQ [CCNC], the protein stability index runs as follows: (treatment: DMSO) 2.66 ± 0.84; (treatment: MLN4924 1 uM, 8 h) 2.46 ± 0.38.

With AQKLTIRLSSRYRYGQLIEINSHS [TRIP13], the protein stability index reads like this: (treatment: DMSO) 2.17 ± 0.55; (treatment: MLN4924 1 uM, 8 h) 2.01 ± 0.27.

Take DNLLLDAKGHVKLSDFGLCTGLKK [STK38L]: the protein stability index (treatment: DMSO) came out at 3.12 ± 0.1 and the protein stability index (treatment: MLN4924 1 uM, 8 h) turned out to be 3.38 ± 0.44.

Consider QLKLDHYRAALRSCSLVLEHQPDN [FKBP8], for which the protein stability index reads like this: (treatment: DMSO) 2.93 ± 0.18; (treatment: MLN4924 1 uM, 8 h) 2.98 ± 0.27.

LSTLLAPYQALRLWARGTWTQATG [SOAT2]: the protein stability index by setting is: (treatment: DMSO) 2.4 ± 0.55; (treatment: MLN4924 1 uM, 8 h) 2.08 ± 0.55.

On to PQCIKEEDTPSDNDSGICMSPESY [ATF4], for which the protein stability index amounted to 5.2 ± 0.23 (treatment: DMSO) and 5.28 ± 0.1 (treatment: MLN4924 1 uM, 8 h).

ATDNYDIGFGVYFEWTDSPNTAVS [ACBD3]: the protein stability index runs as follows: (treatment: DMSO) 2.21 ± 0.16; (treatment: MLN4924 1 uM, 8 h) 2.25 ± 0.48.
